This is an account of results in patent publication US20240117056A1 (IBIO, published 2024).

One may read the EC50 as the midpoint of the concentration-response curve. The term Kd denotes the equilibrium constant for the complex coming apart. The koff is a measure of how fast the partners let go of each other. A word on the kon: it is the rate constant with which the complex forms.

The target in assay [1] is T1, human EGFRvIII, purified recombinant protein (Acro Biosystems Cat #EGI-H52H4) (human, UniProt P00533 25-645).
T1 construct: Bought protein; the deletion must be applied; also called truncated human EGFRvIII; huEGFRvIII
The assay is described as follows: ELISA, antigen coated at 1 ug/mL, anti-human IgG-HRP, n=3. In general terms: ELISA stands for enzyme-linked immunosorbent assay.

For assay [2], the target named is T2, wild type human EGFR1 on cells (F98 EGFR1; wild type U87MG; wild type FaDu) (human, UniProt P00533 25-1210).
T2 construct: whole, on cells
The assay is described as follows: flow cytometry on F98 EGFR1 cells, anti-human IgG Fc Alexa Fluor 647, MFI. For orientation: Flow cytometry measures light scatter and fluorescence of single cells or particles in a stream.

Assay [3] addresses T3, human EGFRvIII overexpressed on cells (F98npEGFRvIII, U87MG-EGFRvIII, FaDu-EGFRvIII) (human, UniProt P00533 25-1210).
T3 construct: whole, on cells; the vIII deletion must be applied; also called F98 EGFRvIII
The experiment in a line: flow cytometry, F98npEGFRvIII cells, n=3.

In assay [4] the target is T4, human EGFR, purified recombinant protein (Acro Biosystems Cat #EGR-H5222) (human, UniProt P00533 25-645).
T4 construct: Bought protein; also called EGFR1; full length human EGFR1
The assay is described as follows: ELISA, plate coated with human EGFR1, anti-human IgG-HRP, OD450.

Assay [5] has as its target T1, human EGFRvIII, purified recombinant …. The assay is described as follows: SPR (Carterra LSA), antibody captured on anti-human IgG, antigen injected, 1:1 Langmuir fit.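 Further: EGFRvIII injected at five concentrations, fivefold serial dilution starting 500 nM, 5 min association then 15 min dissociation, double-referenced against interspot and buffer blank signals, global kinetic fit.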
The target in assay [6] is T3, human EGFRvIII overexpressed on cells …. The experiment in a line: cell-based or functional assay.
The target of assay [7] is T4, human EGFR, purified recombinant …. The experiment in a line: SPR (Carterra LSA), antibody captured on anti-human IgG, EGFR1 injected in a 5-fold series from 500 nM.
The target is the same in assay [8]. The assay is described as above. This is another data set of the same source.
The target of assay [9] is T3, human EGFRvIII overexpressed on cells …. The assay is described as follows: cell-based or functional assay. This is another data set of the same source.
Assay [10] shares this target. The assay is described as follows: flow cytometry, U87MG-EGFRvIII cells, n=3.
The target is the same in assay [11]. The assay is described as follows: flow cytometry, FaDu-EGFRvIII cells, n=3.
Assay [12] shares this target. The experiment in a line: cell-based or functional assay. This is another data set of the same source.

B1: SD-382591-afuc (antibody, V domains shown)
VH: EVQLVQSGAEVKKPGASVKVSCKASGYTFTSYDINWVRQAPGQGLEWMGWIFPGDGTSKYAQKFQGRVTMTTDTSTSTAYMELSSLRSEDTAVYYCARRLGSHWGQGTTVTVSS
VL: DIQLTQSPSSLSASVGDRVTITCKASQSVDSDGDSYMNWYQQKPGKAPKLLIYGASNLESGVPSRFSGSGSGTDFTLTISSLQPEDFATYYCQQSHEYPFTFGQGTKLEIK
notes: afucosylated (FUT8 knock-out CHO)
With B1, the EC50 in [1] turned out to be 0.103 nM; in assay [3], 4.13 nM. In addition, the binding result in [2] and in assay [4] was “no binding” each time. For the same molecule, the Kd in [5] is 131 nM. In addition, in [5], the koff came to 0.0087 s⁻¹. Besides, the association rate constant (kon) in assay [5] amounted to 66000 M⁻¹ s⁻¹. In addition, the “ADCC EC50 (nM), F98 EGFRvIII cells with PBMC” value in [6] is 0.106 nM.

B2: SD-710726-afuc (antibody, V domains shown)
VH: EVQLVQSGAEVKKPGASVKLSCKASGYTFTSYDINWVRQAPGQGLEWIGWIFPGDGTSKYAQKFQGRATLTTDKSTSTAYMELSSLRSEDTAVYYCARRLGSHWGQGTTLTVSS
VL: DIQLTQSPSSLSASVGDRVTITCKASQSVDSDGDSYMNWYQQKPGKAPKLLIYGASNLESGVPSRFSGSGSGTDFTLTISSLQPEDFATYYCQQSHEYPFTFGQGTKLEIK
notes: as for B1
In the case of B2, in assay [1], the EC50 worked out at 0.137 nM. The binding result in assay [2] is “no binding”. This molecule gave an EC50 in [3] of 4.02 nM. For the same molecule, in assay [7], the binding result is reported as “no binding”. In assay [5], the Kd amounted to 86 nM, the koff amounted to 0.0043 s⁻¹ and the kon was 51000 M⁻¹ s⁻¹. In addition, the “ADCC EC50 (nM), F98 EGFRvIII cells with PBMC” value in assay [6] was 0.0168 nM.

B3: SD-638526-afuc (antibody, V domains shown)
VH: EVQLVQSGAEVKKPGASVKVSCKASGYTFTSYDINWVRQAPGQGLEWMGWIFPGDGTSKYAQKFQGRVTMTTDKSTSTAYMELSSLRSEDTAVYYCARRLGSHWGQGTTVTVSS
VL: DIQLTQSPSSLSASVGDRATITCKASQSVDSDGDSYMNWYQQKPGKAPKLLIYGASNLESGIPSRFSGSGSGTDFTLTISSVQPEDFATYYCQQSHEYPFTFGQGTKLEIK
notes: as for B1
As for B3, the EC50 in assay [1] worked out at 0.102 nM. Besides, the binding result in assay [2] was “no binding”. For the same molecule, a half-maximal response in assay [3] (EC50) required 3.21 nM. Further, the binding result in [4] was “no binding”. Moreover, in assay [5], the Kd came out at 122 nM, the koff worked out at 0.0088 s⁻¹ and the kon is 73000 M⁻¹ s⁻¹. Also, the “ADCC EC50 (nM), F98 EGFRvIII cells with PBMC” value in assay [6] came out at 0.111 nM.

B4: SD-633416-afuc (antibody, V domains shown)
VH: EVQLVQSGAEVKKPGASVKVSCKASGYTFTSYDINWVRQAPGQGLEWMGWIFPGDGTSKYAQKFQGRVTMTRDTSTSTVYMELSSLRSEDTAVYYCARRLGSHWGQGTTVTVSS
VL: DIQMTQSPSSLSASVGDRVTITCKASQSVDSDGDSYMNWYQQKPGKAPKLLIYGASNLESGVPSRFSGSGSGTDFTLTISSLQPEDFATYYCQQSHEYPFTFGQGTKLEIK
notes: as for B1
As to B4, the EC50 in assay [1] was 0.121 nM. In [2], the binding result was “no binding”. In [3], this molecule had a concentration giving a half-maximal response (EC50) of 13.8 nM. Besides, in [4], the binding result is recorded as “no binding”. Also, in assay [5], the Kd came out at 234 nM, the off-rate constant (koff) came out at 0.016 s⁻¹ and the on-rate (kon) was determined as 67000 M⁻¹ s⁻¹. The “ADCC EC50 (nM), F98 EGFRvIII cells with PBMC” value in assay [6] is 0.289 nM.

B5: SD-577776-afuc (antibody, V domains shown)
VH: EVQLVQSGAEVKKPGASVKLSCKASGYTFTSYDINWVRQAPGQGLEWIGWIFPGDGTSKYAQKFQGRATLTTDKSTSTAYMELSSLRSEDTAVYYCARRLGSHWGQGTTLTVSS
VL: DIQLTQSPSSLSASVGDRATITCKASQSVDSDGDSYMNWYQQKPGKAPKLLIYGASNLESGIPSRFSGSGSGTDFTLTISSVQPEDFATYYCQQSHEYPFTFGQGTKLEIK
notes: as for B1
With B5, the EC50 in assay [1] is 0.122 nM; in [3], 3.46 nM. Moreover, the binding result in assay [2] and in [4] was “no binding” throughout. In addition, the Kd in [5] was 100 nM. In addition, the off-rate (koff) in [5] was 0.0058 s⁻¹. In addition, the kon in assay [5] turned out to be 57000 M⁻¹ s⁻¹. In addition, in [6], the “ADCC EC50 (nM), F98 EGFRvIII cells with PBMC” value came to 0.0687 nM.

B6: SD-741396-afuc (antibody, V domains shown)
VH: EVQLVQSGAEVKKPGASVKVSCKASGYTFTSYDINWVRQAPGQGLEWMGWIFPGDGTSKYAQKFQGRVTMTTDTSTSTAYMELSSLRSEDTAVYYCARRLGSHWGQGTTVTVSS
VL: DIQLTQSPSSLSASVGDRATITCKASQSVDSDGDSYMNWYQQKPGKAPKLLIYGASNLESGIPSRFSGSGSGTDFTLTISSVQPEDFATYYCQQSHEYPFTFGQGTKLEIK
notes: as for B1
Regarding B6, the concentration for a half-maximal effect (EC50) in assay [1] came to 0.091 nM. Besides, the binding result in assay [2] is given as “no binding”. Moreover, a half-maximal response in assay [3] (EC50) required 5.12 nM. The binding result in [7] is on record as “no binding”. In assay [5], the Kd stood at 159 nM, the koff is 0.011 s⁻¹ and the kon came out at 66000 M⁻¹ s⁻¹. In addition, the “ADCC EC50 (nM), F98 EGFRvIII cells with PBMC” value in assay [6] came out at 0.123 nM.

B7: SD-757052-afuc (antibody, V domains shown)
VH: EVQLVQSGAEVKKPGASVKLSCKASGYTFTSYDINWVRQAPGQGLEWIGWIFPGDGTSKYAQKFQGRATLTTDTSTSTAYMELSSLRSEDTAVYYCARRLGSHWGQGTTLTVSS
VL: DIQLTQSPSSLSASVGDRATITCKASQSVDSDGDSYMNWYQQKPGKAPKLLIYGASNLESGIPSRFSGSGSGTDFTLTISSVQPEDFATYYCQQSHEYPFTFGQGTKLEIK
notes: as for B1
Take B7: the 50% effective concentration (EC50) in assay [1] turned out to be 0.112 nM. Further, in assay [2], the binding result is listed as “no binding”. The same molecule had an EC50 in assay [3] of 4.17 nM. In addition, the binding result in assay [7] is given as “no binding”. In addition, in assay [5], the Kd is 105 nM, the koff is 0.006 s⁻¹ and the kon stood at 57000 M⁻¹ s⁻¹. Besides, in assay [6], the “ADCC EC50 (nM), F98 EGFRvIII cells with PBMC” value turned out to be 0.0562 nM.

B8: SD-787077-afuc (antibody, V domains shown)
VH: EVQLVQSGAEVKKPGASVKVSCKASGYTFTSYDINWVRQAPGQGLEWMGWIFPGDGTSKYAQKFQGRVTMTTDKSTSTAYMELSSLRSEDTAVYYCARRLGSHWGQGTTVTVSS
VL: DIQLTQSPSSLSASVGDRVTITCKASQSVDSDGDSYMNWYQQKPGKAPKLLIYGASNLESGVPSRFSGSGSGTDFTLTISSLQPEDFATYYCQQSHEYPFTFGQGTKLEIK
notes: as for B1
Turning to B8, the EC50 in assay [1] amounted to 0.126 nM. Besides, the binding result in [2] is on record as “no binding”. Moreover, the EC50 in assay [3] worked out at 3.91 nM. Further, in [5], the Kd was 108 nM, the koff came to 0.0077 s⁻¹ and the kon is 71000 M⁻¹ s⁻¹. The “ADCC EC50 (nM), F98 EGFRvIII cells with PBMC” value in assay [6] worked out at 0.0605 nM. Moreover, the binding result in [8] was “no binding”.

B9: SD-233883-afuc (antibody, V domains shown)
VH: EVQLQQFGAELVKPGASVKLSCKASGYTFTSYDINWVRQRPEQGLEWIGWIFPGDGTSKYNEKFKGKATLSTDKSSSTAYMQLSRLTIEDSAVYFCARRLGSHWGQGSTLTVSS
VL: DIVLTQSPASLAVSLGQRATISCKASQSVDSDGDSYMNWYQQKPGQPPKLLIYGASNLESGIPARFSGSGSGTDFSLNIHPVEEEDAATYYCQQSHEYPFTFGGGTKLEIK
notes: afucosylated, made in FUT8 knock-out CHO cells; also called chimera
Turning to B9, the EC50 was found to be 0.144 nM in [1], 2.07 nM in assay [3], 4.05 nM in [10] and 3.13 nM in assay [11]. Further, the binding result in assay [2] and in assay [4] was “no binding” throughout. Further, in assay [9], the “ADCC EC50 (nM), U87MG-EGFRvIII cells with PBMC” value came to 0.0026 nM. Also, the equilibrium dissociation constant (Kd) in assay [5] was found to be 40 nM. For the same molecule, the koff in assay [5] worked out at 0.003 s⁻¹. Moreover, the kon in [5] worked out at 74000 M⁻¹ s⁻¹. Moreover, the “ADCC EC50 (nM), FaDu-EGFRvIII cells with PBMC” value in assay [12] stood at 0.0039 nM. For the same molecule, the “ADCC EC50 (nM), F98 EGFRvIII cells with PBMC” value in assay [6] stood at 0.0082 nM.
